7 substances from PMC11093223, “Cargo selective vesicle tethering: The structural basis for binding of specific cargo proteins by the Golgi tether component TBC1D23” (Science Advances, 2024) can be followed below.

As usually defined, the pKd is the negative decadic logarithm of the Kd, by convention in mol/L. The low end stands for a large Kd, the high end for a small Kd. In general, stoichiometry N refers to the number of molecules, sites or subunits per partner or assembly.

pKd: −log10 of the molar value.

The target in test [1] is Mouse TBC1D23 (559-684), C-terminal domain (mouse) (UniProt Q8K0F1). The test is described as follows: ITC; peptide (0.8 to 5 mM) titrated into 100 uM TBC1D23 C-terminal domain, 20 injections of 2.4 ul; 20°C; 100 mM NaCl, 100 mM tris pH 7.4, 1 mM TCEP; mean of three runs. On the technique in general: Isothermal titration calorimetry measures the heat released or taken up as one component is titrated into another.
Chain of Mouse TBC1D23 (559-684), C-terminal domain (mouse) (Q8K0F1 559-684): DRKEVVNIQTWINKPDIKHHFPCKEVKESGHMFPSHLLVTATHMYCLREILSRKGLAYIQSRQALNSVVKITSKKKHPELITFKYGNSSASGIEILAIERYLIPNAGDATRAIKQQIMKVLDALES

Test [2] addresses TBC1D23 C-terminal domain (mouse) (UniProt Q8K0F1). The test is described as follows: ITC; peptide (0.8 to 5 mM) titrated into 100 μM TBC1D23 C-terminal domain, 20°C, 100 mM NaCl, 100 mM tris pH 7.4, 1 mM TCEP, Nano ITC.

Chain of TBC1D23 C-terminal domain (mouse) (Q8K0F1 559-684): as above

For NPDC1 peptide with the acidic TLY motif, in test [1], the pKd is 5.54. Same read-out and setting: the value for “FAM174C peptide with the acidic TLY motif” was 4.80.

In test [2], CPD peptide (acidic TLY region, ITC) showed a pKd of 4.97 and a stoichiometry N of 1. In turn, FAM174C peptide (TLY-like motif) showed a negative-log Kd (pKd) in test [2] of 4.80.

Take “NPDC1 peptide (acidic TLY motif of the tail)”: the pKd in test [2] was 5.52. Consider “KIAA0319 peptide with the acidic TLY motif”, for which the negative-log Kd (pKd) in test [1] is 4.45.

“KIAA0319 peptide (acidic TLY motif of the tail)” had a pKd in test [2] of 4.46.
